Measurements taken from publication doi:10.1101/2023.11.02.565302.

Target: ligand-binding domain (LBD) of rat GluK1 (rat)
Experiment: crystal structure

## ligand-binding domain (LBD) of rat GluK1 (domain or fragment)
  stoichiometry N: 2
